Experimental data taken from patent publication US20240034793A1 (Bristol-Myers Squibb, published 2024).

Experiments:
[1] = target: human PD-L1 (hPD-L1), Programmed Death Ligand-1, cell surface expressed (human) (UniProt Q9NZQ7); assay: IHC histoscore (0-300), FFPE NSCLC sample 1080993B
[2] = target: human PD-L1 (hPD-L1), Programmed Death Ligand-1, cell surface expressed (human) (UniProt Q9NZQ7); assay: IHC histoscore (0-300), FFPE Mel sample T030668
[3] = target: human PD-L1 (hPD-L1), Programmed Death Ligand-1, cell surface expressed (human) (UniProt Q9NZQ7); assay: IHC histoscore (0-300), FFPE NSCLC sample 1080766B
[4] = target: human PD-L1 (hPD-L1), Programmed Death Ligand-1, cell surface expressed (human) (UniProt Q9NZQ7); assay: IHC histoscore (0-300), FFPE Mel sample 1168657B
[5] = target: human PD-L1 (hPD-L1), Programmed Death Ligand-1, cell surface expressed (human) (UniProt Q9NZQ7); assay: IHC histoscore (0-300), FFPE RCC sample 1164619B
[6] = target: human PD-L1 (hPD-L1), Programmed Death Ligand-1, cell surface expressed (human) (UniProt Q9NZQ7); assay: IHC histoscore (0-300), FFPE NSCLC sample 1080790
[7] = target: human PD-L1 (hPD-L1), Programmed Death Ligand-1, cell surface expressed (human) (UniProt Q9NZQ7); assay: IHC histoscore (0-300), FFPE NSCLC sample 1080754B
[8] = target: human PD-L1 (hPD-L1), Programmed Death Ligand-1, cell surface expressed (human) (UniProt Q9NZQ7); assay: IHC histoscore (0-300), FFPE RCC sample 1167809B
[9] = target: human PD-L1 (hPD-L1), Programmed Death Ligand-1, cell surface expressed (human) (UniProt Q9NZQ7); assay: IHC histoscore (0-300), FFPE Mel sample T980744
[10] = target: T1, human PD-L1 (hPD-L1), Programmed Death Ligand-1, cell surface expressed (human, UniProt Q9NZQ7 19-290); assay: competition flow cytometry on ES-2 cells: unlabelled mAb titrated, then biotin-12A4 at 0.4 ug/ml, streptavidin-PE
T1 construct: whole, on cells; In the IHC assays the cells and tissues were formalin-fixed and paraffin-embedded (FFPE); also called membranous PD-L1
T1 sequence (Q9NZQ7 19-290): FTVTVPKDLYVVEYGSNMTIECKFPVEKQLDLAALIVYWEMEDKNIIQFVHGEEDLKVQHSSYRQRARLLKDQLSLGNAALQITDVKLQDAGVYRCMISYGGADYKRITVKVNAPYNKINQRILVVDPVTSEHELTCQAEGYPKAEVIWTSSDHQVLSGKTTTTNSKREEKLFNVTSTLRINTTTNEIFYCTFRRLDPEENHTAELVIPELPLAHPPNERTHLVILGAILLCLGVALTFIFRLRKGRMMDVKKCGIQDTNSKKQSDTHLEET
Experimental: Anti-PD-L1 HuMAbs 5F8, 12B7, 3G10, 1B12, 13G4, 10H10, 10A5 and 12A4, and a human IgG1 (huIgG1) isotype control Ab were serially diluted from 10 μg/ml and incubated with hPD-L1-expressing ES-2 ovarian carcinoma cells for 20 minutes at 4° C. Without washing, biotinylated-12A4 Ab was added to a final concentration of 0.4 μg/ml for an additional 20 minutes at 4° C.

Sequence of human PD-L1 (hPD-L1), Programmed Death Ligand-1, cell surface expressed (human) (Q9NZQ7 19-290): as above

Molecule | Histoscore Average [1] | Histoscore Average [2] | Histoscore Average [3] | Histoscore Average [4] | Histoscore Average [5] | Histoscore Average [6] | Histoscore Average [7] | Histoscore Average [8] | Histoscore Average [9] | IC50 (read off the curve) [10] [nM]
murine anti-human PD-L1 mAb 5H1 (Dong et al., 2002) (antibody) | 12 | 98 | 103 | 0 | 4 | 40 | 245 | 108 | 98 | –
anti-PD-L1 HuMAb 3G10 (antibody, V domains shown, Human mAb; used unconjugated and FITC-conjugated) VH: QVQLVQSGAEVKKPGASVKVSCKASGYTFTDYGFSWVRQAPGQGLEWMGWITAYNGNTNYAQKLQGRVTMTTDTSTSTVYMELRSLRSDDTAVYYCARDYFYGMDVWGQGTTVTVSS VL: EIVLTQSPATLSLSPGERATLSCRASQSVSSYLVWYQQKPGQAPRLLIYDASNRATGIPARFSGSGSGTDFTLTISSLEPEDFAVYYCQQRSNWPRTFGQGTKVEIK | – | – | – | – | – | – | – | – | – | ~1
